We go through 5 molecules from patent US20200299373A1.

Assay [1] deals with recombinant human FAM19A5 protein (His-tagged) (human) (UniProt Q7Z5A7). As to the kind of experiment: ELISA on N'-Term His FAM19A5, fit of the titration (OD 492 nm); R2 printed -0.2016. Background: ELISA stands for enzyme-linked immunosorbent assay.
Assay [2] shares this target. As to the kind of experiment: ELISA on N'-Term His FAM19A5, fit of the titration; poor fit, R2 printed -0.2016.
Assay [3] shares this target. As to the kind of experiment: two-site sandwich ELISA; capture antibody 3-2; biotinylated detection antibody 13B4; antigen in ng/mL.
Assay [4] shares this target. As to the kind of experiment: two-site sandwich ELISA; capture antibody 2-13; biotinylated detection antibody 13B4; antigen in ng/mL.
For assay [5] the target is unchanged. As to the kind of experiment: two-site sandwich ELISA; capture antibody P2-F11; biotinylated detection antibody 13B4; antigen in ng/mL.
Assay [6] shares this target. As to the kind of experiment: ELISA on N'-Term His FAM19A5, fit of the titration; R2 printed 0.8823.
Assay [7] shares this target. As to the kind of experiment: two-site sandwich ELISA; capture antibody 2-13; S/N = O.D. at 10 ng/mL antigen / O.D. at 0 ng/mL; O.D. in column 0 printed 0.21.
Assay [8] has the same target. As to the kind of experiment: two-site sandwich ELISA; capture antibody 1-65; S/N = O.D. at 10 ng/mL antigen / O.D. at 0 ng/mL; O.D. in column 0 printed 0.12.
Assay [9] has the same target. As to the kind of experiment: two-site sandwich ELISA; capture antibody P2-A03; biotinylated detection antibody 13B4; antigen in ng/mL.
For assay [10] the target is unchanged. As to the kind of experiment: two-site sandwich ELISA; capture antibody 1-65; biotinylated detection antibody 13B4; antigen in ng/mL.
Assay [11] shares this target. As to the kind of experiment: ELISA on N'-Term His FAM19A5, fit of the titration (OD 492 nm); R2 printed 0.8823.
Assay [12] has the same target. As to the kind of experiment: two-site sandwich ELISA; capture antibody P2-A03; S/N = O.D. at 10 ng/mL antigen / O.D. at 0 ng/mL; O.D. in column 0 printed 0.14.
Assay [13] has the same target. As to the kind of experiment: two-site sandwich ELISA; capture antibody P2-F11; S/N = O.D. at 10 ng/mL antigen / O.D. at 0 ng/mL; O.D. in column 0 printed 0.15.
For assay [14] the target is unchanged. As to the kind of experiment: two-site sandwich ELISA; capture antibody 3-2; S/N = O.D. at 10 ng/mL antigen / O.D. at 0 ng/mL; O.D. in column 0 printed 0.13.
The target is the same in assay [15]. As to the kind of experiment: ELISA on N'-Term His FAM19A5, fit of the titration; R2 printed 0.9329.
Assay [16] has the same target. As to the kind of experiment: ELISA on N'-Term His FAM19A5, fit of the titration (OD 492 nm); R2 printed 0.9329.
Assay [17] shares this target. As to the kind of experiment: two-site sandwich ELISA; capture antibody P2-A03; S/N = O.D. at 10 ng/mL antigen / O.D. at 0 ng/mL; O.D. in column 0 printed 0.39.
The target is the same in assay [18]. As to the kind of experiment: two-site sandwich ELISA; capture antibody 13B4; biotinylated detection antibody 2-13; antigen in ng/mL.
Assay [19] shares this target. As to the kind of experiment: ELISA, His-FAM19A5 (positive control) coated on the plate, absorbance at 492 nm.
Assay [20] has the same target. As to the kind of experiment: two-site sandwich ELISA; capture antibody 1-65; S/N = O.D. at 10 ng/mL antigen / O.D. at 0 ng/mL; O.D. in column 0 printed 0.44.
For assay [21] the target is unchanged. As to the kind of experiment: two-site sandwich ELISA; capture antibody 13B4; S/N = O.D. at 10 ng/mL antigen / O.D. at 0 ng/mL; grey cell; cells 10 and 0 under recheck.
For assay [22] the target is unchanged. As to the kind of experiment: two-site sandwich ELISA; capture antibody 3-2; S/N = O.D. at 10 ng/mL antigen / O.D. at 0 ng/mL; O.D. in column 0 printed 0.38.
Assay [23] shares this target. As to the kind of experiment: ELISA on N'-Term His FAM19A5, fit of the titration; R2 printed 0.9303; the text gives about 2.77 nM for 2-13, which on the sheet stands under 13F7.
Assay [24] shares this target. As to the kind of experiment: two-site sandwich ELISA; capture antibody P2-F11; biotinylated detection antibody 2-13; antigen in ng/mL.
For assay [25] the target is unchanged. As to the kind of experiment: two-site sandwich ELISA; capture antibody 1-65; biotinylated detection antibody 2-13; antigen in ng/mL.
The target is the same in assay [26]. As to the kind of experiment: two-site sandwich ELISA; capture antibody P2-F11; S/N = O.D. at 10 ng/mL antigen / O.D. at 0 ng/mL; O.D. in column 0 printed 0.4.
For assay [27] the target is unchanged. As to the kind of experiment: ELISA on N'-Term His FAM19A5, fit of the titration (OD 492 nm); R2 printed 0.9303.
The target is the same in assay [28]. As to the kind of experiment: two-site sandwich ELISA; capture antibody P2-A03; biotinylated detection antibody 2-13; antigen in ng/mL.
The target is the same in assay [29]. As to the kind of experiment: two-site sandwich ELISA; capture antibody 3-2; biotinylated detection antibody 2-13; antigen in ng/mL.
Assay [30] has the same target. As to the kind of experiment: ELISA on coated FAM19A5, as in Example 6.
The target is the same in assay [31]. As to the kind of experiment: ELISA on N'-Term His FAM19A5, fit of the titration (OD 492 nm); R2 printed 0.9813.
Assay [32] shares this target. As to the kind of experiment: ELISA on N'-Term His FAM19A5, fit of the titration; R2 printed 0.9813.

B1: P1-A08 (antibody, V domains shown)
VH: QSLEESGGRLVTPGTPLTLTCTASGFSLSTYYMSWVRQAPGKGLEWIGIVYPSGTTYYANWAKGRFTISTASTTVDLMITSPTTEDTATYFCARGDSFGYGLWGPGTLVTVSS
VL: ELVLTQSPSVQVNLGQTVSLTCTADTLSRSYASWYQQKPGQAPVLLIYRDTSRPSGVPDRFSGSSSGNTATLTISGAQAGDEADYYCATSDGSGSNYQYVFGGGTQLTVTR
Consider B1, for which the Bmax in [1] was 0.479. Moreover, the Kd in [2] is 6.95 nM.

B2: anti-FAM19A5 antibody 13B4 (antibody, V domains shown)
VH: QVQLQESGPGLVKPSGTLSLNCAVSGGSISSSNWWSWVRQPPGKGLEWIGEIYHGGTTNYNPSLKGRVTMSVDKTKNQFSLRLSSVTAVDTAVYYCARWQLVGGLDVWGQGTTVTVSS
VL: SYELTQPLSVSVSPGQTASITCSGDKLGNVYASWYQQKPGQSPTLVIYQDNKRPSGIPERFSGSNSGKTATLTISGTQALDEADYYCQAWDSSTAVFGGGTKLTVLR
modifications: Biotinylated when used as detection antibody in FIG. 6B.
On to B2, for which the O.D., antigen 100 in assay [3] was found to be 1.7; in assay [4], 1.92; in assay [5] it was 0.14; in assay [9], 0.15; in assay [10], 0.12. Further, the O.D., antigen column 10 came to 0.3 in [3]; 0.65 in assay [4]; 0.16 in assay [5]; 0.16 in [9]; 0.12 in assay [10]. Also, the Kd in assay [6] is 1.06 nM. In addition, the S/N turned out to be 3.1 in [7]; 1 in assay [8]; 1.1 in assay [12]; 1.1 in assay [13]; 2.3 in assay [14]. For the same molecule, the Bmax in [11] stood at 2.84.

B3: 13F7 (antibody, V domains shown)
VH: QVQLQEWGAGLLKPSETLSLTCAINAESFNGYSWTWIRQTPGKGLEWIGEISHFGSANYNPSLKSRATISADKSKNQFSLKLTSVTAVDTAVYYCARALRGTYSRFYYGMDVWGQGTTVTVSS
VL: DIVMTQTPLSLPVAPGEPASISCRSSQSLLHSNGYNYLDWYVQKPGQPPQLLIYLGSNRASGVPDRFSGSGSGTDFTLKISRVEAEDVGVYYCMQARQTPLTFGGGTKVEIKR
For B3, in assay [15], the Kd was found to be 2.77 nM. The Bmax in [16] was found to be 3.04.

B4: anti-FAM19A5 antibody 2-13 (antibody, V domains shown)
VH: AVTLDESGGGLQTPGGALSLVCKASGFTFSSHGMFWVRQTPGKGLEYVAEITNDGSGTNYGSAVKGRATISRDNGQSTVRLQLNNLRAEDTGTYFCARSTYECPGGFSCWGDTGQIDAWGHGTEVIVSS
VL: ALTQPSSVSANPGETVKITCSGGSYSYGWFQQKSPGSALVTVIYWDDERPSDIPSRFSGALSGSTNTLTITGVQADDEAVYFCGTEDISGTAGVFGAGTTLTVL
On to B4, for which the S/N amounted to 2.7 in [17]; 4.1 in assay [20]; 1.1 in [21]; 5.1 in [22]; 4.8 in assay [26]. Moreover, the O.D., antigen 100 in assay [18] amounted to 1.48; in [24], 1.94; in assay [25], 2.02; in assay [28], 1.88; in assay [29] it was 2.01. Also, the O.D. in assay [19] came to 3.6. The results for the Kd in assay [23] and in assay [30] were 1.96 nM and 2.77 nM, respectively. Also, the O.D., antigen column 10 in assay [24] was determined as 1.91; in [25] it was 1.8; in [28], 1.07; in assay [29], 1.97. The Bmax in assay [27] was determined as 2.41.

B5: P1-A03 (antibody, V domains shown)
VH: QSVEESGGRLVTPGTPLTLTCTVSGFSLSSDYMSWVRQAPGEGLEWIGIIYPSTTTYYASWAKGRFTISKTSSTTVELKMTSLTTEDTATYFCARGSNWSSGMNLWGPGTLVTVSS
VL: ELVMTQTPPSLSASVGETVRIRCLASEDIYSGISWYQQKPEKPPTLLISGASNLESGVPPRFSGSGSGTDYTLTIGGVQAEDAATYYCLGGYSYSSTGLTFGAGTNVEIKR
Turning to B5, the Bmax in [31] was determined as 2.45. The Kd in [32] was found to be 7.5 nM.

One may read the Kd as the equilibrium constant for the complex coming apart.
